Results: US20210079071A1

Experiments:
[1] = molecular target: Staphylocoagulase peptide SC(1-10) conjugated to ovalbumin (Staphylococcus aureus); assay: ELISA: purified GMA-2105 on SC peptide-ovalbumin conjugate, A490
[2] = molecular target: T1, Staphylocoagulase peptide SC(1-10), …, unconjugated (Staphylococcus aureus); assay: ELISA: purified GMA-2105 on unconjugated …, A490
[3] = molecular target: T1, Staphylocoagulase peptide SC(1-10), …, …; assay: ELISA: GMA-2105 F(ab) on wells coated with …, A490
[4] = molecular target: GMA-2105 murine anti-staphylocoagulase monoclonal antibody

B1: GMA-2105 murine anti-staphylocoagulase monoclonal antibody (antibody, V domains shown)
VH: EVKLEESGGGLVQPGGSMKLSCAASGFTFSDAWMDWVRQSPEKGLEWVAEIRTKANNHATYYAESVKGRFTISRDDSKSSVYLQMNSLRAEDTGIYYCTNVYYGNNDVKDYWGQGTSVTVSPAS
VL: DIVMTQSQKFMSTSVGDRVSVTCKASQNVDIYVAWYQQKPGQSPKALIYSASYRFSGVPDRFTGSGSGTDFTLSISNVQSEDLAEYFCQQYNNYPYTFGGGTKLEIKRADAAPTVSIFPPSSEGRI
EC50 (read off the curve) [1]: 0.03 µg/mL
EC50 (read off the curve) [2]: 0.05 µg/mL

B2: GMA-2105 F(ab) fragment (Fab, V domains shown)
VH: B1 VH
VL: B1 VL
EC50 (read off the curve) [3]: 0.1 µg/mL

B3: Staphylocoagulase peptide SC(1-10), …, unconjugated (peptide)
peptide: IVTKDYSKES
modifications: not checked
IC50 (read off the curve) [4]: 2 nM
